B1: Zinc finger protein GLIS2 (Homo sapiens), Q9BZE0 (parent)
chain: MHSLDEPLDLKLSITKLRAAREKRERTLGVVRPRALHRELGLVDDSPTPGSPGSPPSGFLLNSKFPEKVEGRFSAAPLVDLSLSPPSGLDSPNGSSSLSPERQGNGDLPPVPSASDFQPLRYLDGVPSSFQFFLPLGSGGALHLPASSFLTPPKDKCLSPDLPLPKQLVCRWAKCNQLFELLQDLVDHVNDYHVKPEKDAGYCCHWEGCARHGRGFNARYKMLIHIRTHTNEKPHRCPTCSKSFSRLENLKIHNRSHTGEKPYVCPYEGCNKRYSNSSDRFKHTRTHYVDKPYYCKMPGCHKRYTDPSSLRKHIKAHGHFVSHEQQELLQLRPPPKPPLPAPDGGPYVSGAQIIIPNPAALFGGPGLPGLPLPLAPGPLDLSALACGNGGGSGGGGGMGPGLPGPVLPLNLAKNPLLPSPFGAGGLGLPVVSLLAGAAGGKAEGEKGRGSVPTRALGMEGHKTPLERTESSCSRPSPDGLPLLPGTVLDLSTGVNSAASSPEALAPGWVVIPPGSVLLKPAVVN
B2: LIM domain-binding protein 3 (Homo sapiens), O75112 (parent)
chain: MSYSVTLTGPGPWGFRLQGGKDFNMPLTISRITPGSKAAQSQLSQGDLVVAIDGVNTDTMTHLEAQNKIKSASYNLSLTLQKSKRPIPISTTAPPVQTPLPVIPHQKDPALDTNGSLVAPSPSPEARASPGTPGTPELRPTFSPAFSRPSAFSSLAEASDPGPPRASLRAKTSPEGARDLLGPKALPGSSQPRQYNNPIGLYSAETLREMAQMYQMSLRGKASGVGLPGGSLPIKDLAVDSASPVYQAVIKSQNKPEDEADEWARRSSNLQSRSFRILAQMTGTEFMQDPDEEALRRSSTPIEHAPVCTSQATTPLLPASAQPPAAASPSAASPPLATAAAHTAIASASTTAPASSPADSPRPQASSYSPAVAASSAPATHTSYSEGPAAPAPKPRVVTTASIRPSVYQPVPASTYSPSPGANYSPTPYTPSPAPAYTPSPAPAYTPSPVPTYTPSPAPAYTPSPAPNYNPAPSVAYSGGPAEPASRPPWVTDDSFSQKFAPGKSTTSISKQTLPRGGPAYTPAGPQVPPLARGTVQRAERFPASSRTPLCGHCNNVIRGPFLVAMGRSWHPEEFTCAYCKTSLADVCFVEEQNNVYCERCYEQFFAPLCAKCNTKIMGEVMHALRQTWHTTCFVCAACKKPFGNSLFHMEDGEPYCEKDYINLFSTKCHGCDFPVEAGDKFIEALGHTWHDTCFICAVCHVNLEGQPFYSKKDRPLCKKHAHTINL
B3: "Poly(A) RNA polymerase, mitochondrial" (Homo sapiens), Q9NVV4 (parent)
chain: MAVPGVGLLTRLNLCARRRTRVQRPIVRLLSCPGTVAKDLRRDEQPSGSVETGFEDKIPKRRFSEMQNERREQAQRTVLIHCPEKISENKFLKYLSQFGPINNHFFYESFGLYAVVEFCQKESIGSLQNGTHTPSTAMETAIPFRSRFFNLKLKNQTSERSRVRSSNQLPRSNKQLFELLCYAESIDDQLNTLLKEFQLTEENTKLRYLTCSLIEDMAAAYFPDCIVRPFGSSVNTFGKLGCDLDMFLDLDETRNLSAHKISGNFLMEFQVKNVPSERIATQKILSVLGECLDHFGPGCVGVQKILNARCPLVRFSHQASGFQCDLTTNNRIALTSSELLYIYGALDSRVRALVFSVRCWARAHSLTSSIPGAWITNFSLTMMVIFFLQRRSPPILPTLDSLKTLADAEDKCVIEGNNCTFVRDLSRIKPSQNTETLELLLKEFFEYFGNFAFDKNSINIRQGREQNKPDSSPLYIQNPFETSLNISKNVSQSQLQKFVDLARESAWILQQEDTDRPSISSNRPWGLVSLLLPSAPNRKSFTKKKSNKFAIETVKNLLESLKGNRTENFTKTSGKRTISTQT
B4: ATP-binding cassette sub-family C member 6 (Homo sapiens), O95255 (parent)
chain: MAAPAEPCAGQGVWNQTEPEPAATSLLSLCFLRTAGVWVPPMYLWVLGPIYLLFIHHHGRGYLRMSPLFKAKMVLGFALIVLCTSSVAVALWKIQQGTPEAPEFLIHPTVWLTTMSFAVFLIHTERKKGVQSSGVLFGYWLLCFVLPATNAAQQASGAGFQSDPVRHLSTYLCLSLVVAQFVLSCLADQPPFFPEDPQQSNPCPETGAAFPSKATFWWVSGLVWRGYRRPLRPKDLWSLGRENSSEELVSRLEKEWMRNRSAARRHNKAIAFKRKGGSGMKAPETEPFLRQEGSQWRPLLKAIWQVFHSTFLLGTLSLIISDVFRFTVPKLLSLFLEFIGDPKPPAWKGYLLAVLMFLSACLQTLFEQQNMYRLKVLQMRLRSAITGLVYRKVLALSSGSRKASAVGDVVNLVSVDVQRLTESVLYLNGLWLPLVWIVVCFVYLWQLLGPSALTAIAVFLSLLPLNFFISKKRNHHQEEQMRQKDSRARLTSSILRNSKTIKFHGWEGAFLDRVLGIRGQELGALRTSGLLFSVSLVSFQVSTFLVALVVFAVHTLVAENAMNAEKAFVTLTVLNILNKAQAFLPFSIHSLVQARVSFDRLVTFLCLEEVDPGVVDSSSSGSAAGKDCITIHSATFAWSQESPPCLHRINLTVPQGCLLAVVGPVGAGKSSLLSALLGELSKVEGFVSIEGAVAYVPQEAWVQNTSVVENVCFGQELDPPWLERVLEACALQPDVDSFPEGIHTSIGEQGMNLSGGQKQRLSLARAVYRKAAVYLLDDPLAALDAHVGQHVFNQVIGPGGLLQGTTRILVTHALHILPQADWIIVLANGAIAEMGSYQELLQRKGALMCLLDQARQPGDRGEGETEPGTSTKDPRGTSAGRRPELRRERSIKSVPEKDRTTSEAQTEVPLDDPDRAGWPAGKDSIQYGRVKATVHLAYLRAVGTPLCLYALFLFLCQQVASFCRGYWLSLWADDPAVGGQQTQAALRGGIFGLLGCLQAIGLFASMAAVLLGGARASRLLFQRLLWDVVRSPISFFERTPIGHLLNRFSKETDTVDVDIPDKLRSLLMYAFGLLEVSLVVAVATPLATVAILPLFLLYAGFQSLYVVSSCQLRRLESASYSSVCSHMAETFQGSTVVRAFRTQAPFVAQNNARVDESQRISFPRLVADRWLAANVELLGNGLVFAAATCAVLSKAHLSAGLVGFSVSAALQVTQTLQWVVRNWTDLENSIVSVERMQDYAWTPKEAPWRLPTCAAQPPWPQGGQIEFRDFGLRYRPELPLAVQGVSFKIHAGEKVGIVGRTGAGKSSLASGLLRLQEAAEGGIWIDGVPIAHVGLHTLRSRISIIPQDPILFPGSLRMNLDLLQEHSDEAIWAALETVQLKALVASLPGQLQYKCADRGEDLSVGQKQLLCLARALLRKTQILILDEATAAVDPGTELQMQAMLGSWFAQCTVLLIAHRLRSVMDCARVLVMDKGQVAESGSPAQLLAQKGLFYRLAQESGLV
B5: BCL11 transcription factor A (Homo sapiens), Q9H165 (parent)
chain: MSRRKQGKPQHLSKREFSPEPLEAILTDDEPDHGPLGAPEGDHDLLTCGQCQMNFPLGDILIFIEHKRKQCNGSLCLEKAVDKPPSPSPIEMKKASNPVEVGIQVTPEDDDCLSTSSRGICPKQEHIADKLLHWRGLSSPRSAHGALIPTPGMSAEYAPQGICKDEPSSYTCTTCKQPFTSAWFLLQHAQNTHGLRIYLESEHGSPLTPRVGIPSGLGAECPSQPPLHGIHIADNNPFNLLRIPGSVSREASGLAEGRFPPTPPLFSPPPRHHLDPHRIERLGAEEMALATHHPSAFDRVLRLNPMAMEPPAMDFSRRLRELAGNTSSPPLSPGRPSPMQRLLQPFQPGSKPPFLATPPLPPLQSAPPPSQPPVKSKSCEFCGKTFKFQSNLVVHRRSHTGEKPYKCNLCDHACTQASKLKRHMKTHMHKSSPMTVKSDDGLSTASSPEPGTSDLVGSASSALKSVVAKFKSENDPNLIPENGDEEEEEDDEEEEEEEEEEEEELTESERVDYGFGLSLEAARHHENSSRGAVVGVGDESRALPDVMQGMVLSSMQHFSEAFHQVLGEKHKRGHLAEAEGHRDTCDEDSVAGESDRIDDGTVNGRGCSPGESASGGLSKKLLLGSPSSLSPFSKRIKLEKEFDLPPAAMPNTENVYSQWLAGYAASRQLKDPFLSFGDSRQSPFASSSEHSSENGSLRFSTPPGELDGGISGRSGTGSGGSTPHISGPGPGRPSSKEGRRSDTCEYCGKVFKNCSNLTVHRRSHTGERPYKCELCNYACAQSSKLTRHMKTHGQVGKDVYKCEICKMPFSVYSTLEKHMKKWHSDRVLNNDIKTE

The variants in one assay derive from B1. The settings on record: with ptbp1_human PTBP1, P26599.
Chain of ptbp1_human PTBP1, P26599 (P26599 whole entry): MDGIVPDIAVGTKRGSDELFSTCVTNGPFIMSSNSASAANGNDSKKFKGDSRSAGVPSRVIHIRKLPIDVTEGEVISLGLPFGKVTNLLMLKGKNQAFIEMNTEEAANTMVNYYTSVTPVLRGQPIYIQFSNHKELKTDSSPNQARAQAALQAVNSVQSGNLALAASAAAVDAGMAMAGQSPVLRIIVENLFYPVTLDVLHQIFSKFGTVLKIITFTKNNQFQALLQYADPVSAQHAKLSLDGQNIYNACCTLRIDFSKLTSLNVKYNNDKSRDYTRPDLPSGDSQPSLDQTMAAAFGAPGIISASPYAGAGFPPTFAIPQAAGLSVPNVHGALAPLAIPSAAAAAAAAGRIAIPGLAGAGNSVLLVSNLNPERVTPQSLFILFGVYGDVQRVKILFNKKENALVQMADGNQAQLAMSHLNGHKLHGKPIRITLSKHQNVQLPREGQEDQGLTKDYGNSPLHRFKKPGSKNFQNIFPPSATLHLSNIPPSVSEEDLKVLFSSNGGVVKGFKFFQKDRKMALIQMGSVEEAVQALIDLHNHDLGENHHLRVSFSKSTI
For MHSLDEPLDLKLSITKLRAAREKRERTLGVVRPRALHRELGLVDDSPTPGSPGSPPSGFLLNSKFPEKVEGRFSAAPLVDLSLSPPSGLDSPNGSSSLSPERQGNGDLPPVPSASDFQPLRYLDGVPSSFQFFLPLGSGGALHLPASSFLTPPKDKCLSPDLPLPKQLVCRWAKCNQLFELLQDLVDHVNDYHVKPEKDAGYCCHWEGCARHGRGFNARYKMLIHIRTHTNEKPHRCPTCSKSFSRLENLKIHNRSHTGEKPYVCPYEGCNKRYSNSSDRFKHTRTHYVDKPYYCKMPGCHKRYTDPSSLRKHIKAHGHFVSHEQQELLQLRPPPKPPLPAPDGGPYVSGAQIIIPNPAALFGGPGLPGLPLPLAPGPLDLSALACGNGGGSGGGGGMGPGLPGPVLPLNLAKNPLLPSLFGAGGLGLPVVSLLAGAAGGKAEGEKGRGSVPTRALGMEGHKTPLERTESSCSRPSPDGLPLLPGTVLDLSTGVNSAASSPEALAPGWVVIPPGSVLLKPAVVN [P420L], the “effect of a mutation on the interaction” value is given as “decreasing interaction strength”.

In a further assay the parent is B2. The settings on record: with src_human SRC.
On to P99S, for which the “effect of a mutation on the interaction” value is recorded as “decreasing interaction strength”.

The variants in the next assay derive from B3. The settings on record: with eps15_human EPS15, P42566.
Chain of eps15_human EPS15, P42566 (P42566 whole entry): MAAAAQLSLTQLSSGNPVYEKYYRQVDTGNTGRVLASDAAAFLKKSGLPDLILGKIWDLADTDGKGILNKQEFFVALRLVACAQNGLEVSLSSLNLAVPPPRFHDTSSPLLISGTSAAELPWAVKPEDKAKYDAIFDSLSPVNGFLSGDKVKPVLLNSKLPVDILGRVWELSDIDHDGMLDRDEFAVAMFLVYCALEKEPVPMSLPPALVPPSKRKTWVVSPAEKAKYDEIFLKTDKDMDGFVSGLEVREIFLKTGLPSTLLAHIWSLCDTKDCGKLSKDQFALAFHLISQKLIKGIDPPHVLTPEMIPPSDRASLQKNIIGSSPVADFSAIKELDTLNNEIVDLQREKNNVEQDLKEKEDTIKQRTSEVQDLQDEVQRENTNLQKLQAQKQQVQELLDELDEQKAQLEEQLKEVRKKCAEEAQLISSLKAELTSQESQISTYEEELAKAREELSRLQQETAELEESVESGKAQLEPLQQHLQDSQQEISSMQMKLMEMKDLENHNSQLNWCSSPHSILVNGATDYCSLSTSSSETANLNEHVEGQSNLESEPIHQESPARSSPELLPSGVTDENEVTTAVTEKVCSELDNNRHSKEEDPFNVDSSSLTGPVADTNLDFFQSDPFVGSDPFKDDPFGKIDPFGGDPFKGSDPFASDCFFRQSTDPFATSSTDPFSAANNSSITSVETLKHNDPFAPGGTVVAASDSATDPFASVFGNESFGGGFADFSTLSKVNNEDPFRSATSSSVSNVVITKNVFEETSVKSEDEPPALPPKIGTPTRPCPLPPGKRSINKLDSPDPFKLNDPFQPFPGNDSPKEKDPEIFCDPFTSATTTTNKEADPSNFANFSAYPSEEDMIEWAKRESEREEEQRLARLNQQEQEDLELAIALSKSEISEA
Consider MAVPGVGLLTRLNLCARRRTRVQRPIVRLLSCPGTVAKDLRRDEQPSGSVETGFEDKIPKRRFSEMQNERREQAQRTVLIHCPEKISENKFLKYLSQFGPINNHFFYESFGLYAVVEFCQKESIGSLQNGTHTPSTAMETAIPFRSRFFNLKLKNQTSERSRVRSSNQLPRSNKQLFELLCYAESIDDQLNTLLKEFQLTEENTKLRYLTCSLIEDMAAAYFPDCIVRPFGSSVNTFGKLGCDLDMFLDLDETRNLSAHKISGNFLMEFQVKNVPSERIATQKILSVLGECLDHFGPGCVGVQKILNARCPLVRFSHQASGFQCDLTTNNRIALTSSELLYIYGALDSRVRALVFSVRCWARAHSLTSSIPGAWITNFSLTMMVIFFLQRRSPPILPTLDSLKTLADAEDKCVIEGNNCTFVRDLSRIKPSQNTETLELLLKEFFEYFGNFAFDKNSINIRQGREQNKPDSSPLYIQDPFETSLNISKNVSQSQLQKFVDLARESAWILQQEDTDRPSISSNRPWGLVSLLLPSAPNRKSFTKKKSNKFAIETVKNLLESLKGNRTENFTKTSGKRTISTQT [N478D], for which the “effect of a mutation on the interaction” value was “decreasing interaction strength”.

The variants in another assay derive from B4. The settings on record: with mlp3b_human MAP1LC3B.
Regarding L1226I, the “effect of a mutation on the interaction” value is “decreasing interaction strength”.

Variants of B4 are the subject of the next assay. The settings on record: with mlp3a_human MAP1LC3A.
Take L1226I: the “effect of a mutation on the interaction” value is on record as “decreasing interaction strength”.

A further assay covers variants of B5. The settings on record: with clh1_human CLTC.
C48F: the “effect of a mutation on the interaction” value is “increasing interaction strength”.

The values above are taken from IntAct's records for PubMed 39009827.
